{"source": "patent EP4640225A1", "about": "(dated 2025)", "binders": {"B1": {"name": "pt. 2-ex08TCR (TCR, V domains shown)", "Valpha": "GESVGLHLPTLSVQEGDNSIINCAYSNSASDYFIWYKQESGKGPQFIIDIRSNMDKRQGQRVTVLLNKTVKHLSLQIAATQPGDSAVYFCAEIPWGGSQGNLIFGKGTKLSVKP", "Vbeta": "DTGVSQDPRHKITKRGQNVTFRCDPISEHNRLYWYRQTLGQGPEFLTYFQNEAQLEKSRLLSDRFSAERPKGSFSTLEIQRTEQGDSAMYLCASSRDDREYFGEGSWLTVV"}, "B2": {"name": "pt. 1-ex08TCR (TCR, V domains shown)", "Valpha": "KDQVFQPSTVASSEGAVVEIFCNHSVSNAYNFFWYLHFPGCAPRLLVKGSKPSQQGRYNMTYERFSSSLLILQVREADAAVYYCAVEDVPVNDYKLSFGAGTTVTVRA", "Vbeta": "DAGITQSPRHKVTETGTPVTLRCHQTENHRYMYWYRQDPGHGLRLIHYSYGVKDTDKGEVSDGYSVSRSKTEDFLLTLESATSSQTSVYFCAISAEGTYEQYFGPGTRLTVT"}, "B3": {"name": "pt. 1-ex15TCR (TCR, V domains shown)", "Valpha": "AQKVTQAQTEISVVEKEDVTLDCVYETRDTTYYLFWYKQPPSGELVFLIRRNSFDEQNEISGRYSWNFQKSTSSFNFTITASQVVDSAVYFCALSDPEESGYALNFGKGTSLLVTP", "Vbeta": "DTGVSQDPRHKITKRGQNVTFRCDPISEHNRLYWYRQTLGQGPEFLTYFQNEAQLEKSRLLSDRFSAERPKGSFSTLEIQRTEQGDSAMYLCASSSNEKLFFGSGTQLSVL"}, "B4": {"name": "pt. 2-ex09TCR (TCR, V domains shown)", "Valpha": "GQNIDQPTEMTATEGAIVQINCTYQTSGFNGLFWYQQHAGEAPTFLSYNVLDGLEEKGRFSSFLSRSKGYSYLLLKELQMKDSASYLCAVDDGGATNKLIFGTGTLLAVQP", "Vbeta": "ETGVTQSPTHLIKTRGQQVTLRCSSQSGHNTVSWYQQALGQGPQFIFQYYREEENGRGNFPPRFSGLQFPNYSSELNVNALELDDSALYLCASSTRDRGTYEQYFGPGTRLTVT"}}, "assay_in_all_cases": "activation reporter or marker", "key": {"[1]": {"biological_target": "T1, KK-LC-1 peptide on HLA-B*51:01 (human)", "T1 peptide": "RFQRNTGEM"}, "[2]": {"biological_target": "T2, KK-LC-1 peptide on HLA-C*14:02 (human)", "T2 peptide": "RFQRNTGEM"}, "[3]": {"biological_target": "T3, KK-LC-1 peptide on HLA-A*24:02 (human)", "T3 peptide": "RFQRNTGEM"}, "[4]": {"biological_target": "T4, KK-LC-1 peptide on HLA-C*07:02 (human)", "T4 peptide": "RFQRNTGEM"}, "[5]": {"biological_target": "T5, KK-LC-1 peptide on HLA-A*26:03 (human)", "T5 peptide": "RFQRNTGEM"}, "[6]": {"biological_target": "T6, KK-LC-1 peptide on HLA-B*15:01 (human)", "T6 peptide": "RFQRNTGEM"}, "[7]": {"biological_target": "T7, KK-LC-1 peptide on HLA-B*15:01 (human)", "T7 peptide": "RQKRILVNL"}}}
{"binder": "B1", "values": [{"measurement": "binding result", "setting": "[1]", "result": "no recognition"}, {"measurement": "binding result", "setting": "[2]", "result": "recognises"}, {"measurement": "binding result", "setting": "[3]", "result": "no recognition"}, {"measurement": "binding result", "setting": "[4]", "result": "no recognition"}, {"measurement": "binding result", "setting": "[5]", "result": "no recognition"}, {"measurement": "binding result", "setting": "[6]", "result": "no recognition"}]}
{"binder": "B2", "values": [{"measurement": "binding result", "setting": "[7]", "result": "recognises"}]}
{"binder": "B3", "values": [{"measurement": "binding result", "setting": "[7]", "result": "recognises"}]}
{"binder": "B4", "values": [{"measurement": "binding result", "setting": "[7]", "result": "recognises"}]}
